# In publication PMC9108610 (2022):
# B1: Atg18 (protein)
# chain: MSDSSPTINFINFNQTGTCISLGTSKGFKIFNCEPFGKFYSEDSGGYAIVEMLFSTSLLALVGIGDQPALSPRRLRIINTKKHSIICEVTFPTSILSVKMNKSRLVVLLQEQIYIYDINTMRLLHTIETNPNPRGLMAMSPSVANSYLVYPSPPKVINSEIKAHATTNNITLSVGGNTETSFKRDQQDAGHSDISDLDQYSSFTKRDDADPTSSNGGNSSIIKNGDVIVFNLETLQPTMVIEAHKGEIAAMAISFDGTLMATASDKGTIIRVFDIETGDKIYQFRRGTYATRIYSISFSEDSQYLAVTGSSKTVHIFKLGHSMSNNKLDSDDSNMEEAAADDSSLDTTSIDALSDEENPTRLAREPYVDASRKTMGRMIRYSSQKLSRRAARTLGQIFPIKVTSLLESSRHFASLKLPVETNSHVMTISSIGSPIDIDTSEYPELFETGNSASTESYHEPVMKMVPIRVVSSDGYLYNFVMDPERGGDCLILSQYSILMD
# Biological target: T1, CSC (Vps26/Vps29-GFP/Vps35) (Saccharomyces cerevisiae, UniProt P40335)
# T1 chain 1: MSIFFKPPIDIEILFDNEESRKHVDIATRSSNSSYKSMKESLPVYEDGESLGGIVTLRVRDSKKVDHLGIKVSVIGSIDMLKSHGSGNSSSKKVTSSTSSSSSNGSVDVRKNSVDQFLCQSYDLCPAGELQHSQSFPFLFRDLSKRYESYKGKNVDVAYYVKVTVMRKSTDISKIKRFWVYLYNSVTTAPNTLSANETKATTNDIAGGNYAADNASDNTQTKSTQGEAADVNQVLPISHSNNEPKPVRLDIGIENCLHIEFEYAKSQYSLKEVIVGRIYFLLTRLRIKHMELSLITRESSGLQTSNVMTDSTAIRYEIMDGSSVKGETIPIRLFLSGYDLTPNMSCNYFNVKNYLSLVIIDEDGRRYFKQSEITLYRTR
# T1 chain 2: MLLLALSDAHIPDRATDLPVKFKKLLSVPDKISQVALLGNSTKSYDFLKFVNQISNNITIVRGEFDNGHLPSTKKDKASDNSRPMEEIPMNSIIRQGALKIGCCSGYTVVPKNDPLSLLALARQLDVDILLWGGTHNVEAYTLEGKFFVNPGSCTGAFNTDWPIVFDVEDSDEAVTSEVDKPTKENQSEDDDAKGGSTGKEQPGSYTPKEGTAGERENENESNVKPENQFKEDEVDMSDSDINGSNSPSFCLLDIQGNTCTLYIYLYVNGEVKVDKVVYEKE
# T1 chain 3: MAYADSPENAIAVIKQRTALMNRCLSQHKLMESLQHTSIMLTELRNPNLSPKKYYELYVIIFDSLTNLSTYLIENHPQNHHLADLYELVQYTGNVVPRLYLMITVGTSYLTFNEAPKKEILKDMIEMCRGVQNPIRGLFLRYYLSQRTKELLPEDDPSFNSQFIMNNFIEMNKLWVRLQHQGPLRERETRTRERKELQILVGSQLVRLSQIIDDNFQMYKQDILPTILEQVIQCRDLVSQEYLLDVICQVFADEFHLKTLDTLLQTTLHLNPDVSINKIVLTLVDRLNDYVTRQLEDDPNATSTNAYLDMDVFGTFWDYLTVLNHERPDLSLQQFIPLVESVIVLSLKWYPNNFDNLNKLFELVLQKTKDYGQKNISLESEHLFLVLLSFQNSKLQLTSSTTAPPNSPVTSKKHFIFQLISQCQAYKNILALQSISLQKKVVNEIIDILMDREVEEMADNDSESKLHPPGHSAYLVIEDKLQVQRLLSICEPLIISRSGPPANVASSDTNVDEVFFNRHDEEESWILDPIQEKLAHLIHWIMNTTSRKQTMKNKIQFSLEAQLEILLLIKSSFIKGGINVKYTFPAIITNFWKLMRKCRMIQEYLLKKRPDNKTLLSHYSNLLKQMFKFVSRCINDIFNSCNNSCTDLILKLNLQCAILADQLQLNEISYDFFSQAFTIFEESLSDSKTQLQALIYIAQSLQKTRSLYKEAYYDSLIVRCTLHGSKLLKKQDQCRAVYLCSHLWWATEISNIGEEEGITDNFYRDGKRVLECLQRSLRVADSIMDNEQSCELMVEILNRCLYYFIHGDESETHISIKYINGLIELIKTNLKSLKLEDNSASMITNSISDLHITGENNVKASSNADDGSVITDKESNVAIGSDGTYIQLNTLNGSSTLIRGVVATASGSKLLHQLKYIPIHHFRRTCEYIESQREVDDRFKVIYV
# Assay: fluorescence titration (Vps29-GFP emission increase)
binder,measurement,value
B1,Kd,~50 nM
